Experimental data as given in patent publication US10517958B2, “Compositions and methods for the treatment of platinum-drug resistant cancer” (ZYMEWORKS INC., priority 2016, dated 2019).

Test system: UM-UC13 parental and ex vivo cells
Assay: Internalization assay (confocal microscopy)
Assay type: cell-based, human
Settings: ex vivo and in situ G0-G6 tumor cells
Experimental: UM-UC13 parental and ex vivo cells were seeded to cover slips and grown to 80% confluency. 100 nM rVAR2-V5 was incubated with the cells for 1 hour at 37° C. and 5% CO2. Cells were subsequently washed with PBS prior to fixation with 4% paraformaldehylde for 15 min at room temperature followed by permeabilization with 0.5% trition for 3 mins and blocked with 3% BSA for 30 mins. Cells were then incubated with primary Anti-V5 antibody from ThermoFischer (R960-25) according to manufacturer's instructions followed by 1 hour incubation with anti-mouse AlexaFluor488 secondary antibody from Invitrogen (A-21202). Cover slips were washed with PBS and mounted in mounting media containing DAPI and analyzed by laser-scanning confocal microscopy.

B1: rVAR2: ID1, DBL2X and ID2a domains of the full-length malarial VAR2CSA protein linked to a C-terminal V5 tag (protein)
chain: GHSDSGKYDPCEKKLPPYDDNDQWKCQQNSSDGSGKPENICVPPRRERLCTYNLENLKFDKIRDNNAFLADVLLTARNEGEKIVQNHPDTNSSNVCNALERSFADLADIIRGTDQWKGTNSNLEKNLKQMFAKIRENDKVLQDKYPKDQKYTKLREAWWNANRQKVWEVITCGARSNDLLIKRGWRTSGKSDRKKNFELCRKCGHYEKEVPTKLDYVPQFLRWLTEWIEDFYREKQNLIDDMERHREECTREDHKSKEGTSYCSTCKDKCKKYCECVKKWKTEWENQENKYKDLYEQNKNKTSQKNTSRYDDYVKDFFEKLEANYSSLENYIKGDPYFAEYATKLSFILNPSDANNPSGETANHNDEACNCNESGISSVGQAQTSGPSSNKTCITHSSIKTNKKKECKDVKLGVRENDKDLKICVIEDTSLSGVDNCCCQDLLGILQENCSDNKRGSSSNDSCDNKNQDECQKKLEKVFASLTNGYKCDKCKSGTSRSKKKWIWKKSSGNEEGLQEEYANTIGLPPRTQSLYLGNLPKLENVCEDVKDINFDTKEKFLAGCLIVSFHEGKNLKKRYPQNKNSGNKENLCKALEYSFADYGDLIKGTSIWDNEYTKDLELNLQNNFGKLFGKYIKKNNTAEQDTSYSSLDELRESWWNTNKKYIWTAMKHGAEMNITTCNADGSVTGSGSSCDDIPTIDLIPQYLRFLQEWVENFCEQRQAKVKDVITNCKSCKESGNKCKTECKTKCKDECEKYKKFIEACGTAGGGIGTAGSPWSKRWDQIYKRYSKHIEDAKRNRKAGTKNCGTSSTTNAAASTDENKCVQSDIDSFFKHLIDIGLTTPSSYLSNVLDDNICGADKAPWTTYTTYTTTEKCNKERDKSKSQSSDTLVVVNVPSPLGNTPYRYKYACQCKIPTNEETCDDRKEYMNQWSCGSARTMKRGYKNDNYELCKYNGVDVKPTTVRSNSSKLDSGRGELEGKPIPNPLLGLDSTRTGHHHHHH
internalization of rVAR2 protein: retained internalization capacity
